Test results taken from paper PMC9891502 (PLOS Pathogens, 2023).
Changes are numbered by the printed parent chain. Names and notes keep the numbering of the source.

Experiments:
gB AD-2S1 peptide [1] = molecular target: gB AD-2S1 peptide (human cytomegalovirus); assay: SPR; conditions: both partners purified
gB AD-2S1 peptide [2] = molecular target: gB AD-2S1 peptide (human cytomegalovirus); assay: SPR; conditions: both partners purified; remark: listed apart in the source
[3] = molecular target: T1, full-length gB (Towne strain) expressed on HEK293T cells (Human cytomegalovirus strain Towne, UniProt P13201); assay: cell-based or functional assay
gB AD-2S1 peptide [4] = molecular target: T2, gB AD-2S1 peptide (Human cytomegalovirus (HHV-5), gB …); assay: ELISA; 384-well plates coated overnight at 4°C with 45 ng gB AD-2S1 peptide or gB ectodomain per well; mAbs in a 12-point 3-fold dilution from 1 μg/mL; detected with goat anti-human IgG-HRP; EC50; conditions: both partners purified
T2 chain: HRANETIYNTTLKYG

[5] = molecular target: T1, full-length gB (Towne strain) expressed …; assay: flow cytometry on cells; parameters: AUC of a 3-point dilution series: unit not given beside the values; conditions: one partner purified
[6] = molecular target: T3, gB on whole CMV virions of strain TB40/E (Human cytomegalovirus strain TB40/E (gB …, UniProt P13201, strain)); assay: ELISA; conditions: one partner purified
T3 construct: also called whole virion CMV strain TB40/E; source: whole TB40/E virions coated on the plate (33 PFU/well)

gB AD-2S1 peptide [7] = molecular target: T2, gB AD-2S1 peptide; assay: SPR; conditions: both partners purified

B1: I7 (antibody, V domains shown)
VH: QVQLVESGGGVVQPGRSLRLSCAASGFTFSGYNLHWVRQAPGKGLEWVAVISIDGSNKHYADSVKGRFTISRDNSKNTLYLQMNSLRAEDTAVYYCARDGRSVGGFSGILDPWGQGTLVTVSS
VL: not shown
notes: also called intermediate 7
Kd (gB AD-2S1 peptide [1]): 4.47 nM | kon (gB AD-2S1 peptide [1]): 1.46e+08 M⁻¹ s⁻¹

B2: MAB343 (antibody, V domains shown)
VH: QVQLQESGGGVVQPGRSLRLSCAASGFTFNTYNMHWVRQAPGKGLEWVAVISNDGTYKYSADSVKGRFSISRGNSKNTLYLQMNSLRPDDTAVYYCARDGRSVGGFSGILDPWGQGTLATVSS
VL: EIVMTQSPATLSLSPGDRATLSCRASQSVGSYLAWYQQKPGQAPRLLIYDASDRATGIPARFSGSGSGTDFTLTISSLEPEDFAVYYCQQRSNWPPLTFGGGTKVEIK
Kd (gB AD-2S1 peptide [1]): 1.57 nM | kon (gB AD-2S1 peptide [1]): 1.61e+08 M⁻¹ s⁻¹

B3: TRL345 I8 (antibody, V domains shown)
VH: B1 VH with G31S, L34M, I53N, H59Y
VL: not shown
Kd (gB AD-2S1 peptide [2]): 23.2 nM | kon (gB AD-2S1 peptide [2]): 1.33e+08 M⁻¹ s⁻¹

B4: TRL345 UCA (antibody, V domains shown)
VH: B1 VH with G31S, N33A, L34M, I53Y, H59Y
VL: not shown
notes: also called unmutated common ancestor
Kd (gB AD-2S1 peptide [2]): 27.6 nM | kon (gB AD-2S1 peptide [2]): 9.73e+07 M⁻¹ s⁻¹

B5: anti-gB AD-2 mAb 3-25 (antibody, V domains shown)
VH: QVQLVESGGGVVQPGRSLRLSCAASGFTFSNHGLHWVRQPPGKGLEWVAVVSKDGTNEHYADSVRGRFTISRDNSKNTLYLLMKSLRLEDTAVYYCAREGYCGDDRCYSGQPDYWGQGILVTVSS
VL: B2 VL with M4L, S7F, D17E, S31R, A51S, D53N, I58V, T74S, Y87F, N93H
Kd (gB AD-2S1 peptide [2]): 4.42 nM | kon (gB AD-2S1 peptide [2]): 1.49e+08 M⁻¹ s⁻¹

B6: I1 (antibody, V domains shown)
VH: B2 VH with Q5V, G73D, A119V
VL: B2 VL
notes: also called intermediate 1
Kd (gB AD-2S1 peptide [1]): 1.59 nM | kon (gB AD-2S1 peptide [1]): 1.43e+08 M⁻¹ s⁻¹

B7: MAB309 (I2) (antibody, V domains shown)
VH: QVQLVQSGGGVVQPGTSLRLSCAASGFMFNTYNMHWVRQAPGKGLEWVAVISNDGTYKHFADSLKGRFSISRDDSKNTLYLHMNSLRPDDTAIYYCARDGRSVGGFSGILDPWGQGTLVTVSS
VL: B2 VL with M4L, S28T, S31R, P59S, N93S
Kd (gB AD-2S1 peptide [1]): 3.77 nM | kon (gB AD-2S1 peptide [1]): 1.24e+08 M⁻¹ s⁻¹

B8: TRL345 (antibody, V domains shown)
VH: B2 VH with Q5V, N30S, T31D, N53I, K65A, I70L, G73D, V93I, A119V
VL: B2 VL with I48M, A51S, D53V, S92N
notes: also called MAB345
Kd (gB AD-2S1 peptide [2]): 0.29 nM | kon (gB AD-2S1 peptide [2]): 1.52e+08 M⁻¹ s⁻¹

B9: MAB318 (antibody, V domains shown)
VH: B7 VH
VL: B2 VL with I2V, M4L, S28T, S31R, P59S, S76G, N93S
Kd (gB AD-2S1 peptide [1]): 3.68 nM | kon (gB AD-2S1 peptide [1]): 1.33e+08 M⁻¹ s⁻¹

B10: MAB310 (I3) (antibody, V domains shown)
VH: B7 VH with H59Y, F60S, D74N, I93V
VL: B2 VL with M4L, S28T, S31R, P59S
Kd (gB AD-2S1 peptide [1]): 3.11 nM | kon (gB AD-2S1 peptide [1]): 1.87e+08 M⁻¹ s⁻¹

B11: I4 (antibody, V domains shown)
VH: B2 VH with Q5V, G73D, A119V
VL: B2 VL with M4L
notes: also called intermediate 4
Kd (gB AD-2S1 peptide [1]): 1.85 nM | kon (gB AD-2S1 peptide [1]): 1.3e+08 M⁻¹ s⁻¹

B12: MAB338 (antibody, V domains shown)
VH: QVQLVESGGGVVQPGRSLRLSCSGSGFTFSDYNLHWVRQAPGKGLEWVAVISIDGTNKHHADSVKGRFTISRDNSKNTVNLEMSRLKAEDTAVYYCVRDGRSIGGYSGIFDPWGQGTLVTVSS
VL: B2 VL with M4L, D17E, G30D, S31R, D53Q, T74A, F83V, V105I
Kd (gB AD-2S1 peptide [1]): 1.99 nM | kon (gB AD-2S1 peptide [1]): 1.36e+08 M⁻¹ s⁻¹

B13: MAB319 (antibody, V domains shown)
VH: B1 VH with A23S, G31D, N57D, Y60H, I70V, L79V, Y80S, N84D, A88P, F106Y
VL: B2 VL with M4L, D17E, D53E, F83V, S92N
Kd (gB AD-2S1 peptide [1]): 0.9 nM | kon (gB AD-2S1 peptide [1]): 1.3e+08 M⁻¹ s⁻¹

B14: I5 (antibody, V domains shown)
VH: B1 VH with A23S, G31D, Y60H, L79V, Y80N, F106Y
VL: B2 VL with M4L, D17E, D53E, F83V
notes: also called intermediate 5
Kd (gB AD-2S1 peptide [1]): 5.52 nM | kon (gB AD-2S1 peptide [1]): 1.23e+08 M⁻¹ s⁻¹

B15: MAB313 (antibody, V domains shown)
VH: QVQLVQSGGGVIQPGRSLTLSCAASGFTFSAYSLHWVRQAPGKGLQWVAVISFDGNFKHFADSLRGRFTISRDNSKNRFYLQMNGLRGEDTAVYYCARDGRAVDGFSGILDFWGQGTLVSVSS
VL: B2 VL with D17E, S31R, A34T, Y36F, D53E, S92A
Kd (gB AD-2S1 peptide [1]): 4.38 nM | kon (gB AD-2S1 peptide [1]): 1.54e+08 M⁻¹ s⁻¹

B16: MAB316 (antibody, V domains shown)
VH: B15 VH with I12V, A31G, Y32F, F57H, R65K, R78T, F79L, M83I, G85D
VL: B2 VL with D17E, S31R, A34T, Y36F, D53E, I58V
Kd (gB AD-2S1 peptide [1]): 2.96 nM | kon (gB AD-2S1 peptide [1]): 1.63e+08 M⁻¹ s⁻¹

B17: I8 with VL S30G reverted to germline (antibody, V domains shown)
VH: B1 VH with G31S, L34M, I53N, H59Y
VL: not shown
fold decrease in neutralization potency for CMV strain Towne against I8 [3]: 9 fold | binding result (gB AD-2S1 peptide [4]): binds | binding result [5]: binds

B18: I8 with VL N53D reverted to germline (antibody, V domains shown)
VH: B1 VH with G31S, L34M, I53N, H59Y
VL: not shown
fold decrease in neutralization potency for CMV strain Towne against I8 [3]: 2.5 fold | binding result (gB AD-2S1 peptide [4]): binds | binding result [5]: binds

B19: TRL345 lineage intermediate 8 (I8) mAb (antibody, V domains shown)
VH: B1 VH with G31S, L34M, I53N, H59Y
VL: not shown
neutralization IC50, CMV strain AD169rUL131-GFP (gB genotype 2) on MRC-5 fibroblasts [3]: 0.83 µg/mL | neutralization IC50, CMV strain Towne (gB genotype 1) on MRC-5 fibroblasts [3]: 2.78 µg/mL | binding result [6]: binds | fold increase in ELISA binding magnitude against the UCA (gB AD-2S1 peptide [4]): 151 fold | AUC of a 3-point dilution series [5]: 133 ± 33.3

B20: TRL345 mAb (antibody, V domains shown)
VH: B2 VH with Q5V, N30S, T31D, N53I, K65A, I70L, G73D, V93I, A119V
VL: B2 VL with I48M, A51S, D53V, S92N
neutralization IC50 on ARPE epithelial cells [3]: < 0.35 µg/mL | neutralization IC50 on MRC-5 fibroblasts [3]: < 0.25 µg/mL | AUC of a 3-point dilution series [5]: 152 ± 20.8

B21: TRL345 unmutated common ancestor (UCA) mAb (antibody, V domains shown)
VH: B1 VH with G31S, N33A, L34M, I53Y, H59Y
VL: not shown
notes: also called TRL345 UCA; TRL345.UCA
AUC of a 3-point dilution series [5]: 97.3 ± 21.2

B22: I8 with VH Y52aN reverted to germline (antibody, V domains shown)
VH: B1 VH with G31S, L34M, I53Y, H59Y
VL: not shown
binding result (gB AD-2S1 peptide [4]): binds | binding result [5]: binds

B23: I8 with VH A33N reverted to germline (antibody, V domains shown)
VH: B1 VH with G31S, N33A, L34M, I53N, H59Y
VL: not shown
other (gB AD-2S1 peptide [4]): 395 fold | other [5]: 1.4 fold

B24: TRL345 UCA with VH A33N (antibody, V domains shown)
VH: B1 VH with G31S, L34M, I53Y, H59Y
VL: not shown
fold increase in binding magnitude against the UCA (gB AD-2S1 peptide [4]): 269 fold | fold increase in binding magnitude against the UCA [5]: 2.5 fold

B25: TRL345 UCA with VL S30G (antibody, V domains shown)
VH: B1 VH with G31S, N33A, L34M, I53Y, H59Y
VL: not shown
fold increase in binding magnitude against the UCA (gB AD-2S1 peptide [4]): 1.8 fold | fold increase in binding magnitude against the UCA [5]: 1.2 fold

B26: TRL345 UCA with VH Y52aN (antibody, V domains shown)
VH: B1 VH with G31S, N33A, L34M, I53N, H59Y
VL: not shown
binding result [5]: binds

B27: TRL345 UCA with VL N53D (antibody, V domains shown)
VH: B1 VH with G31S, N33A, L34M, I53Y, H59Y
VL: not shown
binding result [5]: binds

B28: TRL345 UCA with VH A33G (antibody, V domains shown)
VH: B1 VH with G31S, N33G, L34M, I53Y, H59Y
VL: not shown
fold increase in binding against the TRL345 UCA (gB AD-2S1 peptide [4]): ~15 fold | fold increase in binding against the TRL345 UCA [5]: 1.1 fold

B29: 3–25 UCA with VH A33N (antibody, V domains shown)
VH: QVQLVESGGGVVQPGRSLRLSCAASGFTFSSYNMHWVRQAPGKGLEWVAVISYDGSNKYYADSVKGRFTISRDNSKNTLYLQMNSLRAEDTAVYYCAREGYCSGGSCYSGQPDYWGQGTLVTVSS
VL: not shown
other [5]: 4.4 fold

B30: 3–25 UCA with VH A33G (antibody, V domains shown)
VH: B29 VH with N33G
VL: not shown
other [5]: 1.4 fold

B31: TRL345 lineage second intermediate (I4) mAb (antibody, V domains shown)
VH: B2 VH with Q5V, G73D, A119V
VL: B2 VL with M4L
other (gB AD-2S1 peptide [7]): 5 fold
